According to US20260167959A1, “APTAZYME-BASED REGULATABLE GENE EXPRESSION SYSTEMS” (REJUVENATE BIO INC, priority 2022, published 2026):

Tested on: Renilla luciferase RNA
Experiment: Barcoded aptazyme variant library screen: un-cleaved Renilla luciferase RNA by barcode read counts, HEK293-T cells
Type: cell-based
Conditions: un-cleaved Renilla luciferase RNA by barcode read counts; with 1 mM theophylline (ON) over without theophylline (OFF); HEK293-T cells; triplicate
Outline: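 Barcode sequencing of cDNA versus DNA, normalized per aptazyme, gave the un-cleaved Renilla luciferase RNA fraction and fold-change with versus without theophylline (triplicates). Library: T3H48 ribozyme with one of seven theophylline aptamer variants inserted at each position, placed in the Renilla 3′ UTR of a dual-luciferase vector.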

Molecule | Fold change in RNA expression between the ON state and the OFF state
RA329 (nucleic acid, expressed or natural sequence) DNA: GCGCGTCCTGGATTCGCGGAAACGCGTACATCCAGCTGACGAGTCCCAAATAGGACGAAACAGTGATACCAGCATCGTCTTGATGCCCTTGGCAGCACTGCGC | 0.9
RA330 (nucleic acid, expressed or natural sequence) DNA: GCGCGTCCTGGGAGAATACCAGCATCGTCTTGATGCCCTTGGAAGTCTCATTCGCGGAAACGCGTACATCCAGCTGACGAGTCCCAAATAGGACGAAACGCGC | 0.9
RA331 (nucleic acid, expressed or natural sequence) DNA: GCGCGTCCTGGGAATACCAGCATCGTCTTGATGCCCTTGGAAGTCCGATTCGCGGAAACGCGTACATCCAGCTGACGAGTCCCAAATAGGACGAAACGCGC | 0.9
RA332 (nucleic acid, expressed or natural sequence) DNA: GCGCGTCCTGGATTCGCGGAAACGCGTACATCCAGCTGACGAGTCGGAATACCAGCATCGTCTTGATGCCCTTGGAAGTCCCCAAATAGGACGAAACGCGC | 0.9
RA333 (nucleic acid, expressed or natural sequence) DNA: GCGCGTCCTGGATTCGCGGAAACGCGTACATCCAGCTGACGAGTCCCAAAGAATACCAGCATCGTCTTGATGCCCTTGGAAGTCTATAGGACGAAACGCGC | 0.9
RA334 (nucleic acid, expressed or natural sequence) DNA: GCGCGTCCTGGATTCGCGGAAACGCGTACCCGGAATACCAGCATCGTCTTGATGCCCTTGGAAGTCCGGATCCAGCTGACGAGTCCCAAATAGGACGAAACGCGC | 0.9
RA335 (nucleic acid, expressed or natural sequence) DNA: GCGCGTCCTGGATTCGCGGAAACGCGTAGGAATACCAGCATCGTCTTGATGCCCTTGGAAGTCCCATCCAGCTGACGAGTCCCAAATAGGACGAAACGCGC | 0.9
RA336 (nucleic acid, expressed or natural sequence) DNA: GCGCGTCCTGGATTCGCGGAAAGTGATACCAGCATCGTCTTGATGCCCTTGGCAGCACTACGCGTACATCCAGCTGACGAGTCCCAAATAGGACGAAACGCGC | 0.9
RA337 (nucleic acid, expressed or natural sequence) DNA: GCGCGTAGAATACCAGCATCGTCTTGATGCCCTTGGAAGTCTCCTGGATTCGCGGAAACGCGTACATCCAGCTGACGAGTCCCAAATAGGACGAAACGCGC | 0.9
RA338 (nucleic acid, expressed or natural sequence) DNA: GCGCGTCCTGGATTCGCGGAAACGAGAATACCAGCATCGTCTTGATGCCCTTGGAAGTCTCGCGCGTACATCCAGCTGACGAGTCCCAAATAGGACGAAACGCGC | 0.9
RA339 (nucleic acid, expressed or natural sequence) DNA: GCGCGTCCTGGATTGGAATACCAGCATCGTCTTGATGCCCTTGGAAGTCCCGCGGAAACGCGTACATCCAGCTGACGAGTCCCAAATAGGACGAAACGCGC | 0.9

Same assay, conditions: un-cleaved Renilla luciferase RNA, HEK293-T cells cultured with 1 mM theophylline (ON) over without theophylline (OFF); barcode read counts, triplicate

Molecule | Fold change in RNA expression between the ON state and the OFF state [fold]
RA032 (nucleic acid, expressed or natural sequence) DNA: GCGCGTCCTGGATTCGCGGAAAAGTGATACCAGCATCGTCTTGATGCCCTTGGCAGCACTCGCGTACATCCAGCTGACGAGTCCCAAATAGGACGAAACGCGC | 2.3
